Tests used:
Assay in all cases: holdup assay
Design in all cases: key: below the threshold = too weak to quantify, mostly under pKd 3.1 to 4
[1] = target: T1, CARD11, Q9BXL7
T1 sequence (Q9BXL7 662-765, limits assumed, looked up): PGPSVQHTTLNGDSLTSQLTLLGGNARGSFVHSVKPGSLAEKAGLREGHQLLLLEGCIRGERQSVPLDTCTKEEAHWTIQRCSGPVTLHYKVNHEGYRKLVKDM

[2] = target: T2, DFNB31_1, Q9P202
T2 sequence (Q9P202 135-233, limits assumed, looked up): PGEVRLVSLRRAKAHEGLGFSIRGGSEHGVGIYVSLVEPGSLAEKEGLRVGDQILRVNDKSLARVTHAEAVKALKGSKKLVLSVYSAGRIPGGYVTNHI

[3] = target: T3, DFNB31_2, Q9P202
T3 sequence (Q9P202 274-371, limits assumed, looked up): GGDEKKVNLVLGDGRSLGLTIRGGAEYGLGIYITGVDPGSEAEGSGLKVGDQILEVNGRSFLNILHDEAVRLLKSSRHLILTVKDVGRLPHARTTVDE

[4] = target: DLG4_1, P78352
[5] = target: GIPC2, Q8TF65
[6] = target: GRASP, Q7Z6J2
[7] = target: GRID2IP_2, A4D2P6
[8] = target: T4, GRIP1_4, Q9Y3R0
T4 sequence (Q9Y3R0 467-571, limits assumed, looked up): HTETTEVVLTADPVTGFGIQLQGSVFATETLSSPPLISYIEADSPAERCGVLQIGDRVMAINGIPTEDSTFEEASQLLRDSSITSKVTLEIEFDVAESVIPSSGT

[9] = target: IL16_1, Q14005
[10] = target: Inadl_9, Q8NI35
[11] = target: LDB3, O75112
[12] = target: LNX1_1, Q8TBB1
[13] = target: T5, LNX2_2, Q8N448
T5 sequence (Q8N448 334-432, limits assumed, looked up): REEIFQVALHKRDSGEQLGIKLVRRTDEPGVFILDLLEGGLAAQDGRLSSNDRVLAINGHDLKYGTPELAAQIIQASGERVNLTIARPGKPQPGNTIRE

[14] = target: MAGI1_1, Q96QZ7
[15] = target: MAGI2_6, Q86UL8
[16] = target: T6, MPP2, Q14168
T6 sequence (Q14168 180-250, limits assumed, looked up): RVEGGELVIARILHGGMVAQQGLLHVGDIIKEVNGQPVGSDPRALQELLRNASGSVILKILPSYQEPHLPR

[17] = target: NHERF2_2, Q15599
[18] = target: NHERF4_1, Q86UT5-2
[19] = target: T7, PARD3B_1, Q8TEW8
T7 sequence (Q8TEW8 196-299, limits assumed, looked up): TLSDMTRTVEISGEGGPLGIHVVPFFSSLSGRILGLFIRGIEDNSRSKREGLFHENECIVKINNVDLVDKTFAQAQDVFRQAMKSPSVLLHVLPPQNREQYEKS

[20] = target: T8, PDZD7_3, Q9H5P4
T8 sequence (Q9H5P4 857-944, limits assumed, looked up): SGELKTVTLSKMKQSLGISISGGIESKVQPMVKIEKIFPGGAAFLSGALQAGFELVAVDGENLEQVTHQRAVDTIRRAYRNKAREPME

[21] = target: T9, PTPN13_1, Q12923
T9 sequence (Q12923 1088-1188, limits assumed, looked up): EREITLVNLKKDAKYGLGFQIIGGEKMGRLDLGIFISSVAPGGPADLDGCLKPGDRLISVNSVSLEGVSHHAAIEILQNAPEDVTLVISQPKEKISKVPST

[22] = target: SCRIB_3, Q14160
[23] = target: T10, SHANK1, Q9Y566
T10 sequence (Q9Y566 658-767, limits assumed, looked up): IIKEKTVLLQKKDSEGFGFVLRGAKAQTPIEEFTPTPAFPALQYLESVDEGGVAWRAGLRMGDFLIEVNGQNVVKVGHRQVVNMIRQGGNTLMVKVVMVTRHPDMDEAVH

[24] = target: T11, SIPA1L2, Q9P2F8
T11 sequence (Q9P2F8 945-1036, limits assumed, looked up): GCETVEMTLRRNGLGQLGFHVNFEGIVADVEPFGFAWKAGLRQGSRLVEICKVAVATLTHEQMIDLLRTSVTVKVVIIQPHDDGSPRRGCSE

[25] = target: T12, SNTG2, Q9NY99
T12 sequence (Q9NY99 68-166, limits assumed, looked up): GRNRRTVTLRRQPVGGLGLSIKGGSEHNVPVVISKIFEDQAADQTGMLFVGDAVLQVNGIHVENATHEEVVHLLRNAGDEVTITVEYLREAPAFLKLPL

[26] = plain residues with an end cap or a label only (N-terminal biotin on a linker: ado-ado)
[27] = modified: phospho on T at position -2 from the C-terminal residue

LNX1_1, Q8TBB1, sequence (Q8TBB1 261-371): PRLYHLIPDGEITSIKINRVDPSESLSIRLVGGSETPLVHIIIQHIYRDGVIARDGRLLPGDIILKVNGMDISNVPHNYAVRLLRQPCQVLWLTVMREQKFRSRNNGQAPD
GRID2IP_2, A4D2P6, sequence (A4D2P6 272-370): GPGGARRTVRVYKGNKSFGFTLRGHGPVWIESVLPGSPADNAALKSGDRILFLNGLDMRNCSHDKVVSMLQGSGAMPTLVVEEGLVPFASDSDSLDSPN
Inadl_9, Q8NI35, sequence (Q8NI35 1530-1615): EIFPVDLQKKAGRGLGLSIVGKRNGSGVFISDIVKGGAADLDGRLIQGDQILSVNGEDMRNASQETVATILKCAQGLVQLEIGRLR
LDB3, O75112, sequence (O75112 1-94): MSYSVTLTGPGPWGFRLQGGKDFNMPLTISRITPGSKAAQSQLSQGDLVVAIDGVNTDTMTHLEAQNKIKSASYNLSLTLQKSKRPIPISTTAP
DLG4_1, P78352, sequence (P78352 62-152): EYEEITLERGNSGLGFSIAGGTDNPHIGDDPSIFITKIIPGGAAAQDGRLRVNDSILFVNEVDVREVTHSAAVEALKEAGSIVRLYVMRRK
NHERF4_1, Q86UT5-2, sequence (Q86UT5 other isoform, or with tags, fused parts or gaps): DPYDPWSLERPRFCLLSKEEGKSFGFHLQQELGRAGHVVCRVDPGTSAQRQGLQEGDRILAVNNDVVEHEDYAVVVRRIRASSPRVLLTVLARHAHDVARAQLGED
MAGI1_1, Q96QZ7, sequence (Q96QZ7 1-106): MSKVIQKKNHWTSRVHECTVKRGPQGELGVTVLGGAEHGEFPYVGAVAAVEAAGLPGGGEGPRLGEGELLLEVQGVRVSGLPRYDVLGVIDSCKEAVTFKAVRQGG
GRASP, Q7Z6J2, sequence (Q7Z6J2 96-193): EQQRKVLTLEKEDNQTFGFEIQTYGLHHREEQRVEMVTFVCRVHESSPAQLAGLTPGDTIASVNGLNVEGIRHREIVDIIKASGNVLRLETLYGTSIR
IL16_1, Q14005, sequence (Q14005 210-306): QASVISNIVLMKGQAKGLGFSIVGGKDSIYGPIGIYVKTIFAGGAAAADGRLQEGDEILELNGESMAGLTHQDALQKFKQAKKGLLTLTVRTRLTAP
MAGI2_6, Q86UL8, sequence (Q86UL8 1141-1229): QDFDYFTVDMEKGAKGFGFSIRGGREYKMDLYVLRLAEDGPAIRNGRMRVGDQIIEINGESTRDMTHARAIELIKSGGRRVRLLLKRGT
GIPC2, Q8TF65, sequence (Q8TF65 112-203): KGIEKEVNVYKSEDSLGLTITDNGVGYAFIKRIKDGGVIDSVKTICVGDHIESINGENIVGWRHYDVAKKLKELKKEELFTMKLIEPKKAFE
NHERF2_2, Q15599, sequence (Q15599 142-238): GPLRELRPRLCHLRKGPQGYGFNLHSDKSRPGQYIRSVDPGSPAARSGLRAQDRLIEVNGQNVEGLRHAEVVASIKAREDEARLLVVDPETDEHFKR
SCRIB_3, Q14160, sequence (Q14160 999-1103): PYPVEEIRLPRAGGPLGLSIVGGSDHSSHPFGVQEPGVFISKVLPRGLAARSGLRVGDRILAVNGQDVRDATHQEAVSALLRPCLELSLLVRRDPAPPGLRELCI

B1: TMEM178A, Q8NBL3 (peptide)
chain: QLKSGRDSTV
pKd [1, 26]: below the threshold
pKd [2, 26]: 3.6
pKd [3, 26]: 3.52
pKd [4, 26]: 4.34
pKd [5, 26]: 3.87
pKd [6, 26]: 3.56
pKd [7, 26]: 3.54
pKd [8, 26]: 3.56
pKd [9, 26]: below the threshold
pKd [10, 26]: 3.52
pKd [11, 26]: below the threshold
pKd [12, 26]: below the threshold
pKd [13, 26]: 3.49
pKd [14, 26]: below the threshold
pKd [15, 26]: 3.85
pKd [16, 26]: below the threshold
pKd [17, 26]: 3.55
pKd [18, 26]: below the threshold
pKd [19, 26]: below the threshold
pKd [20, 26]: 4.19
pKd [21, 26]: 3.57
pKd [22, 26]: 3.48
pKd [23, 26]: below the threshold
pKd [24, 26]: below the threshold
pKd [25, 26]: 3.77

B2: ADRA1D, P25100 (peptide)
chain: DYSNLRETDI
pKd [1, 26]: below the threshold
pKd [2, 26]: 5.02
pKd [3, 26]: below the threshold
pKd [4, 26]: 3.89
pKd [5, 26]: 3.8
pKd [6, 26]: below the threshold
pKd [7, 26]: below the threshold
pKd [8, 26]: below the threshold
pKd [9, 26]: 3.59
pKd [10, 26]: below the threshold
pKd [11, 26]: below the threshold
pKd [12, 26]: 4.44
pKd [13, 26]: below the threshold
pKd [14, 26]: below the threshold
pKd [15, 26]: 4.31
pKd [16, 26]: below the threshold
pKd [17, 26]: below the threshold
pKd [18, 26]: below the threshold
pKd [19, 26]: below the threshold
pKd [20, 26]: 4.97
pKd [21, 26]: below the threshold
pKd [22, 26]: 5.27
pKd [23, 26]: below the threshold
pKd [24, 26]: below the threshold
pKd [25, 26]: 5.05

B3: HPV33-E6_-2P, P06427 (peptide)
chain: SRSRRRETAL
pKd [1, 27]: below the threshold
pKd [2, 27]: below the threshold
pKd [3, 27]: below the threshold
pKd [4, 27]: below the threshold
pKd [5, 27]: below the threshold
pKd [6, 27]: below the threshold
pKd [7, 27]: below the threshold
pKd [8, 27]: below the threshold
pKd [9, 27]: below the threshold
pKd [10, 27]: below the threshold
pKd [11, 27]: below the threshold
pKd [12, 27]: below the threshold
pKd [13, 27]: below the threshold
pKd [14, 27]: below the threshold
pKd [15, 27]: below the threshold
pKd [16, 27]: below the threshold
pKd [17, 27]: below the threshold
pKd [18, 27]: 4.6
pKd [19, 27]: below the threshold
pKd [20, 27]: 3.74
pKd [21, 27]: below the threshold
pKd [22, 27]: below the threshold
pKd [23, 27]: below the threshold
pKd [24, 27]: below the threshold
pKd [25, 27]: below the threshold

From PMC9482650, “Quantitative fragmentomics allow affinity mapping of interactomes” (Nature Communications, 2022)
